Laboratory results published in article PMC8376927.

How the values were obtained:
[1] = target: DAPK2_RNTD, full-length human DAPK2 mutant with the C terminus S367STS370 changed to R367NTD370, autophosphorylated (human) (UniProt Q9UIK4); experiment: AUC; sedimentation velocity, DAPK2_RNTD alone at 25-350 μM; 20 °C, 42,000 rev./min; 50 mM HEPES-NaOH pH 7.5, 150 mM NaCl, 1 mM TCEP; dimer to monomers, KD from the ratios of the peak areas
[2] = target: FAM-ctDAPK2-pT369 peptide (FAM-RRRSSpTS) (human); experiment: fluorescence polarisation; as a1 but with 100 µM Fusicoccin A (FC-A); apparent KD
[3] = target: FAM-ctDAPK2-pT369 peptide (FAM-RRRSSpTS) (human); experiment: fluorescence polarisation; 14-3-3γ (160 µM and binary dilution series) incubated 1 h with 50 nM FAM-labelled peptide; 20 mM HEPES-NaOH pH 7.4, 150 mM NaCl, 0.1% Tween 20, 0.1% BSA; one-site-binding model; apparent KD

| Kd [1] [nM] | stoichiometry N [1] | Kd [2] [nM] | Kd [3] [nM] | Substance |
| --- | --- | --- | --- | --- |
| 100000 | 2 |  |  | DAPK2_RNTD, full-length human DAPK2 mutant with the C terminus S367STS370 changed to R367NTD370, autophosphorylated (from UniProt Q9UIK4 1-370) (enzyme) |
|  |  | 4.4 | 114 | Human 14-3-3γ WT (from UniProt P61981 1-247) (natural protein) |
